Test results taken from the supplement of paper PMC12042874.
± gives the uncertainty stated by the source.

Test: amyloid nucleation score (Sup35N fusion, yeast selection) (log enrichment); library NNK1; higher = more nucleation; inactive = no reads after selection
How it was run: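 Using DiMSum, nucleation scores were taken as the log enrichment of output over input reads, centred on the mode score of non-aggregating sequences. The input and output reads came from Illumina sequencing of plasmid inserts, with sequences under 100 input reads excluded. The yeast were psi-negative, expressed Sup35N fused to peptides of 20 random codons, were induced with 100 μM copper sulfate for 24 hours, and were grown 7 days at 30°C on medium lacking adenine and uracil.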

| Substance | amyloid nucleation score |
| --- | --- |
| CFRDGYSKLCGCYVSMRTGH | 0.459 ± 0.53 |
| CFRTFKFLI | 2.49 ± 0.27 |
| CFSQPHGAVANHNAFSDNPW | -0.289 ± 0.39 |
| CFVMLFDRYVNLLIGNQLWY | 0.145 ± 0.35 |
| CFVVYGQTPSTVPRINAVLS | 6.46 ± 0.069 |
| CGADVNVWMTIWHYLFIDRG | inactive |
| CGFDRMAMYWVNFDLHWSSA | 0.121 ± 0.36 |
| CGKPPFGNYWGTWCKIVVTL | 0.746 ± 0.62 |
| CGMARWSRKSTELAHKQNVD | 0.277 ± 0.61 |
| CGSRSCSLFDRKWIRYFLGC | 0.759 ± 0.34 |
| CGVEA | -0.542 ± 0.76 |
| CHLIL | 0.115 ± 0.34 |
| CHLTMIMNLVIMMAWNPLHC | 0.765 ± 0.47 |
| CHYMSHSSWHSWTNRVMRDM | 0.531 ± 0.29 |
| CIFLM | 0.21 ± 0.48 |
| CIGNCYGWLSDLSWWSCPSS | 0.676 ± 0.3 |
| CIIDKFGVLIV | inactive |
| CIILKTIPIIDY | inactive |
| CIIVFPISTPWAQGSYIRIQ | 0.041 ± 1.2 |
| CILSSHL | 2.61 ± 0.33 |
| CISAVPCM | 0.497 ± 0.43 |
| CIYIQYYLNLTVFCRVRLNA | -0.516 ± 1.7 |
| CIYIWCGVFGSYFGFLVLAA | 0.18 ± 0.49 |
| CLARNSYPDVFRSETGKEAV | -0.093 ± 0.7 |
| CLCLKVFLQKVVRGCNR | 1.01 ± 0.29 |

| Substance | amyloid nucleation score |
| --- | --- |
| CLDVFASISMRHFYFVFMCY | 0.487 ± 0.75 |
| CLFLIKKHVNNDMGSVRRLS | 0.317 ± 0.71 |
| CLFNSGFSDIGLRGMWGRKF | 0.358 ± 0.35 |
| CLGAVIDSGNHSNSCYIRGD | 2.07 ± 0.67 |
| CLKFLDLNIKIDPYQFSF | inactive |
| CLKHLWLRQSKEKVD | inactive |
| CLLFTEMFTPLVEVAESM | -0.038 ± 0.48 |
| CLLHEASCGWFFGWFVRHT | 0.989 ± 0.28 |
| CLNVYNLFMSLPGVAAPPMV | 6.9 ± 0.085 |
| CLRLVQEFTFMYTVVHGARC | 1.13 ± 0.71 |
| CLSSALLHLFRRNRIISVVT | 0.193 ± 0.39 |
| CLTIGCWRFSF | 4.57 ± 0.093 |
| CLVVPCD | 0.151 ± 0.42 |
| CMGLFVTSSL | 0.38 ± 1.2 |
| CMIIRVGGRQGIHYSFSRMD | -0.652 ± 0.26 |
| CMLLNWIPMRRARLTTFVGK | 0.433 ± 0.58 |
| CMRMRMFSKVVGSLWWESGY | 0.054 ± 0.39 |
| CMTPS | inactive |
| CMYFFRVTGKINNINSLYCW | -0.824 ± 0.38 |
| CNFHVCLRLRDIWSRLYLVV | 7.157 ± 0.07 |
| CNHSTSFVEVVERL | -0.085 ± 0.42 |
| CNLYFSYNCVFT | -0.592 ± 0.24 |
| CNPSG | 0.819 ± 0.51 |
| CNQYWVSQ | 0.322 ± 0.26 |
| CNRLIHDMHVCLTNE | inactive |

| Substance | amyloid nucleation score |
| --- | --- |
| CNSLTLFRWYFNMVGNIQAN | -0.143 ± 0.37 |
| CPGFD | 0.595 ± 0.64 |
| CPLRIIQLMCTNRGLMGRLG | -0.071 ± 0.31 |
| CPMWYYCRSVLSSLAVSDCS | inactive |
| CPRTWFLENNRVTIMHFYRG | 6.67 ± 0.08 |
| CPVWELLKDCMCHKNGLFCT | 1.28 ± 0.58 |
| CQIPVFENYFLHLGWSYAPL | 0.224 ± 1.4 |
| CQNFDDI | 0.117 ± 0.9 |
| CQSVFRGTIHS | -0.235 ± 0.55 |
| CRACSHMTKLLIGTFLLLDF | -0.325 ± 0.6 |
| CRCSSQLRYMHGRFWFDRSV | 0.084 ± 0.62 |
| CRFMSVICHTLFWTPLTFYY | 0.592 ± 0.83 |
| CRGFFLGFPIHQVKAFCFCR | -0.047 ± 1.7 |
| CRIVKARDGC | -1.23 ± 2.4 |
| CRKVITRVGSVTVTGGFYLI | -0.374 ± 0.67 |
| CRLKLNPSVHGIGRGVCLAE | -0.464 ± 0.48 |
| CRMGFNQLWLKLRNRCVGLG | -0.008 ± 0.36 |
| CRNTLPGP | -0.398 ± 0.44 |
| CRRIWA | -0.377 ± 0.34 |
| CRTYYCHTHGPAQKDHYDRG | -0.78 ± 0.89 |
| CRVLWQWNSKLGCFAAALNL | -0.326 ± 0.63 |
| CRYTMGSNKVALFYGWMHPG | 0.726 ± 0.66 |
| CSDRRS | -0.054 ± 0.53 |
| CSKFLVVVSVYFLVYSVEHM | -0.94 ± 1.6 |
| CSLRYVLHYRYVGLETATNT | 0.763 ± 0.5 |

| Substance | amyloid nucleation score |
| --- | --- |
| CSQLLKLTQSAYLFFVNQDS | 0.676 ± 0.52 |
| CSSIWHCPVYDVITLM | 0.282 ± 0.75 |
| CSTFRVDFFSPCFLL | 6.006 ± 0.05 |
| CSVMSNARRIWDRMQLNGVK | -0.568 ± 0.33 |
| CSWDYMVVR | -0.137 ± 0.98 |
| CTEFRFF | 0.314 ± 0.47 |
| CTFILVLHLLHINTDHIMSA | -0.176 ± 1.1 |
| CTGSVWYAPLWMWWEWLR | 0.498 ± 0.69 |
| CTIRYWF | 1.5 ± 0.42 |
| CTVMHELCCRWFELFRRSVR | 1.45 ± 0.63 |
| CVCLKDPANLSAIGCRGESL | -1.6 ± 2.7 |
| CVCLRGDKGPLSRLRLRSSS | 0.254 ± 1 |
| CVDCALQFLGCRVGALLTRG | -0.875 ± 1.7 |
| CVELVLSCV | -0.095 ± 0.43 |
| CVLFAYFNALF | 1.3 ± 0.57 |
| CVRLHPSDWAFYRAPFNKHG | 0.659 ± 0.55 |
| CVRNGLGCYSCTRTFFTVIV | -0.409 ± 0.94 |
| CVSFMVTFTIMRQLYNCKCR | 3.91 ± 0.077 |
| CVVGLISGSPPIRSVFKCNR | 0.156 ± 0.98 |
| CWFTAVLARPLWNSSVSSVA | -0.369 ± 0.34 |
| CWGLLSGDCHALEKFNRFYL | -0.086 ± 0.48 |
| CWLGCYPSSGEQWGGWFNAI | -0.344 ± 0.7 |
| CWLTRCCITWVIHRVMANLM | 0.51 ± 0.84 |
| CYELSGWGNSWVGNRSLGFV | 0.626 ± 0.46 |
| CYIYPVFLGFMYCREEGNMG | 1.93 ± 0.37 |

| Substance | amyloid nucleation score |
| --- | --- |
| CYLPWDSKNGVEDLYWYEFK | 1.79 ± 0.13 |
| CYYSRFHFAPISIMFCVNGG | 5.99 ± 0.076 |
| DAMFLL | -0.358 ± 0.31 |
| DATCLESLALSYKG | -0.573 ± 0.41 |
| DCEGLFI | 0.864 ± 0.74 |
| DCESVWSIKGNKPMLFDRIL | -1.45 ± 1.7 |
| DCNFCL | -0.545 ± 1.1 |
| DCSFRCMYAIMLYVLCLSHN | 0.422 ± 0.35 |
| DCWRRYYSSLLITVGGLFYK | -0.014 ± 0.34 |
| DCWSITILSVNRGSLFRLTF | inactive |
| DCYHLGQTIPISRFGLRTKL | 0.826 ± 0.75 |
| DCYSRNVDLYGCGDDGDILL | -0.031 ± 0.25 |
| DDFTLCKPGLVYMMSG | 0.398 ± 0.6 |
| DDLSGRRELTLRQT | 0.618 ± 0.49 |
| DDLWSCMFELDAYMSFYLKA | inactive |
| DDMVPNWARVTCLSQNWL | 0.385 ± 0.54 |
| DDNGPTYR | inactive |
| DDNSMSDTHLL | 1.13 ± 0.25 |
| DDRTKLQLSMRWEQQIMRHR | 3.48 ± 0.12 |
| DDTDLVLVMRRSIVERGMRE | 0.437 ± 0.39 |
| DEDDSD | 0.471 ± 0.46 |
| DEKMVSVSSESGRLHKNVKC | 1.11 ± 0.49 |
| DETLEEPCT | 0.017 ± 0.43 |
| DFARNQDGSFVWN | -0.575 ± 0.36 |
| DFEDTYSWKVTGEGATRKRW | 0.166 ± 0.49 |

| Substance | amyloid nucleation score |
| --- | --- |
| DFRLGHDFWANKSFFFTSPN | -0.028 ± 0.31 |
| DFSYSNPDFVFLTQYIAYEK | 4.43 ± 0.06 |
| DFVLIIFFCPCRYCSSTHTT | 3.32 ± 0.2 |
| DFVRMSRPHG | 0.563 ± 0.51 |
| DGFALGMSRC | inactive |
| DGNNNKLVMVLWLSYADYRW | inactive |
| DGSNRHLSRSMVGRGRT | 0.335 ± 0.8 |
| DGSSLSPDPSLVWLKDM | -0.823 ± 0.55 |
| DGVEFPFRMIESRFNGCQD | -0.613 ± 0.77 |
| DHLVEQYDRGDAAFFRLVFV | inactive |
| DIAHC | -0.464 ± 0.59 |
| DIFVLMRAMWHRGMI | 0.857 ± 0.8 |
| DIGLREFNWVTNITTLPQLG | 1.33 ± 0.61 |
| DIGRSAGRGVFVFSLLCNKW | 3.63 ± 0.18 |
| DIHNRDCVLYDRLDRHVYMK | -0.083 ± 0.31 |
| DIILLYSLFADIFISGRIYT | -0.13 ± 0.58 |
| DILEIWL | -0.481 ± 0.4 |
| DIRIPMHLSIDLQVVLSLRY | 0.172 ± 0.63 |
| DIRLIPCMSMVC | -1.38 ± 1.1 |
| DITNVAWNMPNTRCEPKPLK | 0.444 ± 1.2 |
| DIYIMSNGLGYYFFSTNVRM | 2.55 ± 0.19 |
| DIYRRSVGGRWLRLFSRRVV | 0.209 ± 0.39 |
| DKNVSRFIPNEMLCLKPWAP | 1.19 ± 0.9 |
| DKTGLGRRGPIIFSLSFRWS | -1.55 ± 1.4 |
| DKYTARDVSKRT | 1.56 ± 0.59 |

| Substance | amyloid nucleation score |
| --- | --- |
| DLDRDAKLS | -1.43 ± 0.7 |
| DLFDIDLRYFLLRVFKGCP | 0.579 ± 0.46 |
| DLFYYLRRLITRTWFM | 1.05 ± 0.27 |
| DLHRRSVCCFENVFVITAYY | 2.06 ± 0.27 |
| DLKVNCVGEWADRLFMFSFG | 0.683 ± 0.84 |
| DLLLRSSTSTVVCIMNRTTS | 3.94 ± 0.076 |
| DLLVNCDAVKLVYLSGYVDV | 0.342 ± 0.23 |
| DLNRSALSRDDGNSVILKCG | 0.653 ± 0.68 |
| DLRNMKVNTQDVSFLSPRGG | 0.208 ± 0.29 |
| DLVTSYWKIEGPILRSGGNM | -0.563 ± 0.49 |
| DLVYVSRLYISVNRYPSWFV | -0.462 ± 0.51 |
| DMFCQAI | 0.773 ± 0.39 |
| DMKDDRRSFTKGP | -0.103 ± 0.69 |
| DMTNAVCTRLNFIRLSTLMK | 0.041 ± 0.32 |
| DMYYNQTRVQKPPVMPQSLK | -0.667 ± 0.78 |
| DNAYPHPCSIYYNNNQFLRF | 6.734 ± 0.054 |
| DNLLEAASNNIIEYVCSPLE | 0.501 ± 0.44 |
| DNRSFFWNL | 2.22 ± 0.13 |
| DPSPLR | -0.827 ± 2.4 |
| DPYTHYVAMRINCYWEMCAL | -1.06 ± 0.93 |
| DQFCDMPTWVLVMYKSRDFL | 0.862 ± 0.55 |
| DQSWSREWPCVLVHHVHYKD | 0.626 ± 0.28 |
